Positions count from the first letter of the chain named.
T1: growth differentiation factor 5 (GDF5), wild type (human, UniProt P43026 28-501)
T1 construct: GDF5, human, UniProt P43026; Disulfide-linked dimer without glycans; also called BMP14; CDMP1
T1 sequence (looked up): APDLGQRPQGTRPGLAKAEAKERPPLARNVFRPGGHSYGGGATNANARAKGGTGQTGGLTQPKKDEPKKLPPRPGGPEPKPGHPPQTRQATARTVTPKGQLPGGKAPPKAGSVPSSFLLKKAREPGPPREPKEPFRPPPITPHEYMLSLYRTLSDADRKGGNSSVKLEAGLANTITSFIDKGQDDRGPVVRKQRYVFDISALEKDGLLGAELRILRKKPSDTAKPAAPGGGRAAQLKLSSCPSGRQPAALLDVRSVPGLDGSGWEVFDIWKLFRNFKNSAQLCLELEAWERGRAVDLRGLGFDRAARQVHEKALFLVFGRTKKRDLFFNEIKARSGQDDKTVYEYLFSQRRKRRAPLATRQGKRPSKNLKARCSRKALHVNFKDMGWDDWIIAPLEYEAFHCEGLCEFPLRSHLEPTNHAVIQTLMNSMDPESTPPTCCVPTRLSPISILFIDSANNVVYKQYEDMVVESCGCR

T2: growth differentiation factor 5 (GDF5), wild type (UniProt P43026 382-501)
T2 construct: GDF5, disulfide-linked dimer; also called wild-type GDF5
T2 sequence (looked up): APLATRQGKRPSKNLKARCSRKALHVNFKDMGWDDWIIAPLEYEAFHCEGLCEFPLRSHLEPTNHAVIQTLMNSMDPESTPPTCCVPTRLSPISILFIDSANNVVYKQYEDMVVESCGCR

T3: GDF5 variant Tyr487Lys/Gln489Asp (UniProt P43026 28-501, Tyr487Lys | Gln489Asp)
T3 construct: GDF5 with Tyr487Lys and Gln489Asp
T3 sequence (looked up): T1 sequence (looked up) with Y460K, Q462D

B1: N-terminal domain of human RGMB (RGMBND, Gln53-His136) (domain or fragment)
chain: ETGQCRIQKCTTDFVSLTSHLNSAVDGFDSEFCKALRAYAGCTQRTSKACRGNLVYHSAVLGISDLMSQRNCSKDGPTSSTNPEVTHGTKHHHHHH
B2: RGMBND His106Leu (domain or fragment)
chain: B1 chain with H57L
B3: RGMBND His106Asn (domain or fragment)
chain: B1 chain with H57N
B4: N-terminal domain of human RGMB (RGMBND, Gln53–His136) (domain or fragment)
chain: B1 chain
modifications: N-linked glycan on Asn120 (cut down to one N-acetylglucosamine for crystallization; kept fully glycosylated for binding assays); methylated for crystal form 2
B5: N-terminal domain of human RGMC (RGMCND, Gln36–Pro145) (domain or fragment)
chain: ETGQCKILRCNAEYVSSTLSLRGGGSSGALRGGGGGGRGGGVGSGGLCRALRSYALCTRRTARTCRGDLAFHSAVHGIEDLMIQHNCSRQGPTAPPPPRGPALPGAGSGLPAP
modifications: Asn-linked glycans cut down to one N-acetylglucosamine for crystallization; kept fully glycosylated for binding assays
notes: Glu-Thr-Gly from the pHLsec vector, after the N-terminal secretion signal; human RGMC (Hemojuvelin), N-terminal domain, residues Gln36–Pro145 of UniProtKB Q6ZVN8-1; also called Hemojuvelin; HFE2; source: HEK-293T, transient transfection, secreted, purified (IMAC, SEC)
B6: RGMCND Gly99Arg (domain or fragment, human)
chain: B5 chain with G67R
notes: Glu-Thr-Gly from the pHLsec vector, after the N-terminal secretion signal; human RGMC, N-terminal domain, residues Gln36–Pro145 of UniProtKB Q6ZVN8-1, with Gly99Arg; Made by site-directed mutagenesis of the RGMCND construct; also called RGMC Gly99Arg; juvenile hemochromatosis-causing mutation; source: HEK-293T, transient transfection, secreted, purified (IMAC, SEC in SPR running buffer)
B7: RGMBND Gly101Arg (domain or fragment)
chain: QCRIQKCTTDFVSLTSHLNSAVDGFDSEFCKALRAYAGCTQRTSKACRRNLVYHSAVLGISDLMSQRNCSKDGPTSSTNPEVTH
B8: N-terminal domain of human RGMA (RGMAND, Ser46–Ser139) (domain or fragment)
chain: ETGSPCKILKCNSEFWSATSGSHAPASDDTPEFCAALRSYALCTRRTARTCRGDLAYHSAVHGIEDLMSQHNCSKDGPTSQPRLRTLPPAGDSQERS
modifications: Asn-linked glycans cut down to one N-acetylglucosamine for crystallization; kept fully glycosylated for binding assays
notes: Glu-Thr-Gly from the pHLsec vector, after the N-terminal secretion signal; human RGMA, N-terminal domain, residues Ser46–Ser139 of UniProtKB Q96B86-1; source: HEK-293T, transient transfection, secreted, purified (IMAC, SEC)
B9: extracellular domain of human RGMB (RGMBECD, Gln53–Ser411) (domain or fragment)
chain: ETGQCRIQKCTTDFVSLTSHLNSAVDGFDSEFCKALRAYAGCTQRTSKACRGNLVYHSAVLGISDLMSQRNCSKDGPTSSTNPEVTHDPCNYHSHAGAREHRRGDQNPPSYLFCGLFGDPHLRTFKDNFQTCKVEGAWPLIDNNYLSVQVTNVPVVPGSSATATNKITIIFKAHHGCTDQKVYQAVTDDLPAAFVDGTTSGGDSDAKSLRIVERESGHYVEMHARYIGTTVFVRQVGRYLTLAIRMPEDLAMSYEESQDLQLCVNGCPLSERIDDGQGQVSAILGHSLPRTSLVQAWPGYTLETANTQCHEKMPVKDIYFQSCVFDLLTTGDANFTAAAHSALEDVEALHPRKERWHIFPSSGTKHHHHHH
modifications: Asn-linked glycans cut down to one N-acetylglucosamine for crystallization
B10: soluble RGMC extracellular domain (RGMCECD) for the ProteOn SPR studies (domain or fragment, human, UniProt Q6ZVN8 36-400, looked up)
chain: QCKILRCNAEYVSSTLSLRGGGSSGALRGGGGGGRGGGVGSGGLCRALRSYALCTRRTARTCRGDLAFHSAVHGIEDLMIQHNCSRQGPTAPPPPRGPALPGAGSGLPAPDPCDYEGRFSRLHGRPPGFLHCASFGDPHVRSFHHHFHTCRVQGAWPLLDNDFLFVQATSSPMALGANATATRKLTIIFKNMQECIDQKVYQAEVDNLPVAFEDGSINGGDRPGGSSLSIQTANPGNHVEIQAAYIGTTIIIRQTAGQLSFSIKVAEDVAMAFSAEQDLQLCVGGCPPSQRLSRSERNRRGAITIDTARRLCKEGLPVEDAYFHSCVFDVLISGDPNFTVAAQAALEDARAFLPDLEKLHLFPSD

Assays:
[1] = biological target: T1, growth differentiation factor 5 (GDF5), …; assay: SPR; Biacore T200, 25 °C; GDF5 amine-coupled to a CM5 chip (830, 970 or 1370 RU); RGMBND variants or BSA as analytes; 0.5 M NaCl, 20 mM HEPES pH 7.4, 0.05% (v/v) Tween 20; Kd from the dose-dependency of equilibrium binding, 1:1 Langmuir isotherm; details: both partners purified
[2] = biological target: T2, growth differentiation factor 5 (GDF5), …; assay: SEC-MALS; RGMBND–GDF5 complex, 1 mg/mL, Superdex 200 HR 10/30, 0.5 M NaCl, 20 mM Hepes pH 7.5, 21 °C; details: both partners purified
[3] = biological target: T2, growth differentiation factor 5 (GDF5), …; assay: SPR; Biacore T200, 25 °C; GDF5 and BMP2 covalently linked to a CM5 chip by primary amine coupling, RGMs as analytes; 0.5 M NaCl, 20 mM Hepes pH 7.4, 0.05% Tween 20; equilibrium binding, 1:1 Langmuir isotherm; apparent affinity; details: both partners purified
[4] = biological target: T4, bone morphogenetic protein 2 (BMP2) (UniProt P12643 283-396); assay: as above; details: both partners purified
T4 construct: BMP2, dimeric ligand
T4 sequence (P12643 283-396): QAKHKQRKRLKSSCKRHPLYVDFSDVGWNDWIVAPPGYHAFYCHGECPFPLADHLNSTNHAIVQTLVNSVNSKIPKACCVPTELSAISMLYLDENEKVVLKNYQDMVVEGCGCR

[5] = biological target: T3, GDF5 variant Tyr487Lys/Gln489Asp; assay: SEC-MALS; RGMBND–GDF5(Tyr487Lys/Gln489Asp)–ActR2bECD complex, 1 mg/mL, Superdex 200 HR 10/30, 0.5 M NaCl, 20 mM Hepes pH 7.4, 21 °C; details: both partners purified
[6] = biological target: T2, growth differentiation factor 5 (GDF5), …; assay: cell-based or functional assay
[7] = biological target: T4, bone morphogenetic protein 2 (BMP2); assay: cell-based or functional assay

Row | Binder | Kd [1] [µM] | Kd [3] [µM] | other results
1 | B1 | 1.8 | – | –
2 | B2 | > 200 | – | –
3 | B3 | > 150 | – | –
4 | B4 | – | 2.7 | stoichiometry N [2]: 2 RGMB per disulfide-linked GDF5 dimer (2:2 by chains); Kd [4]: 20.1 µM; stoichiometry N [5]: 2 RGMBND per GDF5 dimer (2:2:2 by chains)
5 | B5 | – | 3.9 | –
6 | B6 | – | > 20 | –
7 | B7 | – | > 150 | –
8 | B8 | – | 16.7 | –
9 | B9 | – | 8.8 | GDF5 (30 nM) BMP-responsive luciferase reporter in LLC-PK1 cells expressing full-length membrane-anchored RGMB [6]: ~3 fold
10 | B10 | – | – | BMP2 (3 nM) BMP-responsive luciferase reporter in LLC-PK1 cells expressing full-length membrane-anchored RGMC [7]: ~3 fold
